Key:
[1] = target: human polyclonal IgG (Gammanorm) (human); test: column breakthrough; ratio to reference Zvar4
[2] = target: human polyclonal IgG (Gammanorm) (human); test: column breakthrough, 1.0 M NaOH; ratio to reference Zvar4
[3] = target: human polyclonal IgG (Gammanorm) (human); test: column breakthrough, ligand 9.7 mg/ml; after 24 h 0.5 M NaOH
[4] = target: human polyclonal IgG (Gammanorm) (human); test: column breakthrough, ligand 9.7 mg/ml; after 24 h 1.0 M NaOH
[5] = target: human polyclonal IgG (Gammanorm) (human); test: column breakthrough, agarose beads, ligand 9.7 mg/ml, 6 min residence
[6] = target: human polyclonal IgG (Gammanorm) (human); test: as above; remark: listed apart in the source
[7] = target: human polyclonal IgG (Gammanorm) (human); test: SPR; ratio of remaining capacity to reference Zvar1
[8] = target: IgG1 monoclonal antibody (probe molecule in the Biacore kinetics); test: SPR (Biacore), ligand on CM5 chip, IgG1 mAb as probe
[9] = target: human polyclonal IgG (Gammanorm) (human); test: SPR, ligand on chip; signal left after 96-100 CIP cycles 0.5 M NaOH
[10] = target: IgG1 monoclonal antibody (probe molecule in the Biacore kinetics); test: SPR (Biacore), ligand on CM5 chip, IgG1 mAb as probe; exponent read as 10^-5
[11] = target: human polyclonal IgG (Gammanorm) (human); test: column breakthrough, ligand […]; after 24 h 0.5 M NaOH
[12] = target: human polyclonal IgG (Gammanorm) (human); test: column breakthrough, ligand […]; after 24 h 1.0 M NaOH
[13] = target: human polyclonal IgG (Gammanorm) (human); test: column breakthrough, ligand 7.2 mg/ml; after 24 h 0.5 M NaOH
[14] = target: human polyclonal IgG (Gammanorm) (human); test: column breakthrough, agarose beads, ligand […], 6 min residence
[15] = target: human polyclonal IgG (Gammanorm) (human); test: as above; remark: listed apart in the source
[16] = target: human polyclonal IgG (Gammanorm) (human); test: column breakthrough, agarose beads, ligand 7.2 mg/ml, 6 min residence
[17] = target: human polyclonal IgG (Gammanorm) (human); test: SPR, ligand on chip; CIP cycles 0.5 M NaOH
[18] = target: human polyclonal IgG (Gammanorm) (human); test: SPR; ratio to reference (the text names Zvar6)
[19] = target: human polyclonal IgG (Gammanorm) (human); test: pH 6-3 citrate gradient elution; hexamer SEQ ID NO 33 on agarose; peak 1
[20] = target: human polyclonal IgG (Gammanorm) (human); test: pH 6-3 citrate gradient elution; hexamer SEQ ID NO 33 on agarose; peak 2
[21] = target: human polyclonal IgG (Gammanorm) (human); test: column breakthrough, ligand 10.8 mg/ml; after 24 h 0.5 M NaOH
[22] = target: human polyclonal IgG (Gammanorm) (human); test: column breakthrough, agarose beads, ligand 10.8 mg/ml, 6 min residence

“Zvar(N11K,H18K,S33K,D37E,A42R,N43A,L44I,K50R,L51Y)4 with an additional N-terminal cysteine (designed binder)” was tested, and the Capacity retention relative to ref. after six 4 h cycles [1] was 1.53, the Capacity retention relative to ref. after six 4 h cycles [2] was 1.44 and the Remaining IgG capacity Qb10 after six 4 h cycles [3] was 52 mg/mL. The Remaining IgG capacity after six 4 h cycles (%) [3] was 92%, the Remaining IgG capacity Qb10 after six 4 h cycles [4] was 48.1 mg/mL and the Remaining IgG capacity after six 4 h cycles (%) [4] was 77%. The Initial IgG capacity Qb10 [5] was 56.3 mg/mL and the Initial IgG capacity Qb10 [6] was 62.1 mg/mL.

Work on “Zvar(Q9A,N11E,Q40V,A42K,N43A,L44I)1 (designed binder)” yielded a Capacity relative to reference [7] of 1.4, a Kd [8] of 1.07 nM and a kon [8] of 410000 M⁻¹ s⁻¹. The Capacity after 96-100 cycles [9] was 66% and the koff [10] was 0.000437 s⁻¹.

Work on “Zvar(Q9A,N11E,Q40V,A42K,N43A,L44I)4 with an additional N-terminal cysteine (designed binder)” yielded a Capacity retention relative to ref. after six 4 h cycles ([1]; ligand content 7.2 mg/ml) of 1.5, a Remaining IgG capacity Qb10 after six 4 h cycles [11] of 53.6 mg/mL and a Remaining IgG capacity after six 4 h cycles (%) [11] of 95%. For the same substance, the Remaining IgG capacity Qb10 after six 4 h cycles [12] was 56 mg/mL, the Remaining IgG capacity after six 4 h cycles (%) [12] was 93% and the Capacity retention relative to ref. after six 4 h cycles [2] was 1.67. It also gave a Remaining IgG capacity Qb10 after six 4 h cycles [13] of 44.2 mg/mL, a Remaining IgG capacity after six 4 h cycles (%) [13] of 90% and an Initial IgG capacity Qb10 [14] of 56.3 mg/mL. It also gave an Initial IgG capacity Qb10 [15] of 60.3 mg/mL and an Initial IgG capacity Qb10 [16] of 49 mg/mL.

“Zvar(Q9A,N11E,Q40V,A42K,N43A,L44I)6 (designed binder)” showed a Remaining capacity 100 cycles (%) [17] of 87%, a Capacity relative to ref. 100 cycles [18] of 1.3 and an Elution pH [19] of 4.24 pH. For the same substance, the Elution pH [20] was 3.81 pH.

“Zvar(Q9A,N11K,H18K,D37E,A42R)4 with an additional N-terminal cysteine (designed binder)” was tested, and the Capacity retention relative to ref. after six 4 h cycles [1] was 1.3, the Remaining IgG capacity Qb10 after six 4 h cycles [21] was 52.5 mg/mL and the Remaining IgG capacity after six 4 h cycles (%) [21] was 92%. The Initial IgG capacity Qb10 [22] was 56.9 mg/mL.
